Source: FireProtDB (doi:10.1002/prot.20496)
“And” between values parts separate entries of the source, which are not always exact repeats. Equal values may be shown once.

B1: Alpha-lactalbumin, P00712 (parent)
chain: MMSFVSLLLVGILFHATQAEQLTKCEVFQKLKDLKDYGGVSLPEWVCTAFHTSGYDTQAIVQNNDSTEYGLFQINNKIWCKDDQNPHSRNICNISCDKFLDDDLTDDIVCAKKILDKVGINYWLAHKALCSEKLDQWLCEKL

Variants of: B1
Conditions: Capra hircus, pH 7.5, Thermal, Tris-HCl 10 mM, CaCl2 2 mM, structure 1HFY, whole UniProt chain shown

Variant	Tm (DSC) [°C]	change of melting temperature, mutant - wild type (higher = more stable) (DSC) [°C]	Tm (Fluorescence)	change of melting temperature, mutant - wild type (higher = more stable) (Fluorescence)
W79F W137F	68.1	-3	71 °C and 68 °C	-0.2 °C and -1.9 °C
W79F	67.9	-3.2	69.2 °C	-2 °C
W137F	71.5	0.4		
